Results on two molecules are retold here after US8241610B2, “Adjuvant combinations of liposomes and mycobacterial lipids for immunization compositions and vaccines” (Statens Serum Institut, priority 2003, dated 2012).

In one assay the test system is blood lymphocytes. The assay is described as follows: IFN-gamma release from blood lymphocytes of immunized mice re-stimulated in vitro with antigen (ELISA). As to conditions: mouse, in vivo, sc.
For the next assay, the system named is antigen-specific IgG. Also on record: species or system mice. As to conditions: mouse, in vivo, sc.

Turning to “Tetanus toxoid: Tetanus toxoid from Statens Serum Institut; given in total lipids/DDA”, the “Immune response: release of IFN-gamma from blood lymphocytes” value in the assay on blood lymphocytes is reported as 52500 ± 13500.

B1: OVA: Ovalbumin, Sigma Aldrich; given in total lipids/DDA (protein, UniProt P01012 2-386, looked up)
Ovalbumin: GSIGAASMEFCFDVFKELKVHHANENIFYCPIAIMSALAMVYLGAKDSTRTQINKVVRFDKLPGFGDSIEAQCGTSVNVHSSLRDILNQITKPNDVYSFSLASRLYAEERYPILPEYLQCVKELYRGGLEPINFQTAADQARELINSWVESQTNGIIRNVLQPSSVDSQTAMVLVNAIVFKGLWEKAFKDEDTQAMPFRVTEQESKPVQMMYQIGLFRVASMASEKMKILELPFASGTMSMLVLLPDEVSGLEQLESIINFEKLTEWTSSNVMEERKIKVYLPRMKMEEKYNLTSVLMAMGITDVFSSSANLSGISSAESLKISQAVHAAHAEINEAGREVVGSAEAGVDAASVSEEFRADHPFLFCIKHIATNAVLFFGRCVSP
Regarding B1, in the assay on antigen-specific IgG, the “IgG1, antigen-specific levels (midpoint titres)” value turned out to be 2500 and the “IgG2a, antigen-specific levels (midpoint titres)” value is recorded as <100. For the same molecule, the “Immune response: release of IFN-gamma from blood lymphocytes” value with blood lymphocytes amounted to 793 ± 81.
